Results: patent publication US20230265187A1 (published 2023)

T1: human TIGIT on Jurkat cells (TIGIT/NFAT reporter Jurkat cells, BPS Bioscience #60538); Promega TIGIT Effector … (human, UniProt Q495A1 22-244)
T1 construct: whole, on cells; Same protein on two bought Jurkat lines (flow cytometry: BPS; bioassay: Promega); also called hu TIGIT cells; cells expressing human TIGIT
T1 sequence (looked up): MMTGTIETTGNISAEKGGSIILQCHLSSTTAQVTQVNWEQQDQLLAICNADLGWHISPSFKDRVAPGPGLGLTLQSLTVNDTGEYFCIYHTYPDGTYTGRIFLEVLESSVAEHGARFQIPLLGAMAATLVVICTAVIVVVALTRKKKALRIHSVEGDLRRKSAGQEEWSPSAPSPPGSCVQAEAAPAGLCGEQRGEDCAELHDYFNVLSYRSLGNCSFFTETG

T2: his-tagged human TIGIT (Acro Biosystems #TIT-H52H3) (human, UniProt Q495A1 22-141)
T2 construct: Bought protein; also called His-tagged-TIGIT (human); not shown: his tag
T2 sequence (looked up): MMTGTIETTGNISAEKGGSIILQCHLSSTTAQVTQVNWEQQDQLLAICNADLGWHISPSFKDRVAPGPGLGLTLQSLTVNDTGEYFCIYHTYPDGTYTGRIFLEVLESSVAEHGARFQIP

T3: his-tagged murine TIGIT (Acro Biosystems #TIT-M52E6) (murine, UniProt P86176 29-148, limits assumed)
T3 construct: Bought protein; also called mouse his-tagged TIGIT; not shown: his tag
T3 sequence (looked up): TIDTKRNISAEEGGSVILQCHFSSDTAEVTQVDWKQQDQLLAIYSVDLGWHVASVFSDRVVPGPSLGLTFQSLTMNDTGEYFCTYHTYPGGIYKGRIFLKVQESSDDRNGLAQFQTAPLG


Key:
[1] = biological target: T1, human TIGIT on Jurkat cells (TIGIT/NFAT …); test: flow cytometry, TIGIT/NFAT Jurkat cells, 10 ug/ml
[2] = biological target: T1, human TIGIT on Jurkat cells (TIGIT/NFAT …); test: cell-based or functional assay
[3] = biological target: T4, His-tagged cynomolgus monkey TIGIT (Acro Biosystems #TIT-05223) (cynomolgus monkey, UniProt A0A7N9I9V4 89-209); test: SPR (Carterra LSA), scFv-Fc captured, His-TIGIT analyte
T4 construct: Bought protein; also called cyno TIGIT; cynomolgus TIGIT; not shown: His tag
T4 sequence (A0A7N9I9V4 entry or part of it): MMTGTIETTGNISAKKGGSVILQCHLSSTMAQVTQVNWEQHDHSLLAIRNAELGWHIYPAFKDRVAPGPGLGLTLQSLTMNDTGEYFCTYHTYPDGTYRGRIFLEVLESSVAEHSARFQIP
Method in brief: (§1)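 Affinity from His-TIGIT analyte injected in 1:2 serial dilution over antibody captured as scFv-Fc via amine-coupled goat anti-human Fc on an HC30M surface. Supernatants diluted 30-fold in HBSTE; kinetic fitting.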

[4] = biological target: T2, his-tagged human TIGIT (Acro Biosystems …); test: as above
Method in brief: as §1

[5] = biological target: T4, His-tagged cynomolgus monkey TIGIT …; test: SPR (Carterra LSA), scFv-Fc captured, His-TIGIT analyte; repeat
Experimental: (§2) Binding affinities of anti-TIGIT antibodies to human, cyno, and murine TIGIT were measured by Surface Plasmon Resonance (SPR) on a Carterra LSA instrument. Goat anti-human Fc antibody was amine coupled to a HC30M chip. ScFv-Fc supernatants were diluted 30-fold with HBSTE and were captured by the anti-human Fc coupled HC30M chip. A 1:2 dilution series of his-tagged human TIGIT, starting at 400 nM, was injected onto the chip for binding. A dilution series was also carried out for cyno TIGIT and murine TIGIT. Data were analyzed using the Carterra™ Kinetics software.

[6] = biological target: T3, his-tagged murine TIGIT (Acro …); test: as above
Experimental: as §2

[7] = biological target: T4, His-tagged cynomolgus monkey TIGIT …; test: ELISA, coated His-TIGIT, 1 ug/ml
[8] = biological target: T3, his-tagged murine TIGIT (Acro …); test: ELISA, coated His-TIGIT, 1 ug/ml
[9] = biological target: T2, his-tagged human TIGIT (Acro Biosystems …); test: ELISA, coated His-TIGIT, 1 ug/ml
[10] = biological target: T3, his-tagged murine TIGIT (Acro …); test: SPR (Carterra LSA), scFv-Fc captured, His-TIGIT analyte
Method in brief: as §1

Row | Binder | MFI [1] | max. signal (% of 22G2) [2] | Kd [3] | Kd [4] | Kd [5] | Kd [6] | Elisa OD450 [7] | Elisa OD450 [8] | Elisa OD450 [9] | Kd [10]
1 | 43645p1.D1 (scFv, V domains shown) VH: EVQLLESGGDLVQSGGSLRLSCAASGFSFWGYAMTWVRQAPGKGLEWVSTIAGNSYTYYADSVKGRFTISRDNSKNMVYLQMNGLRAEDTAVYYCAKDRSFYNYYDIDVWGQGTTVTVSS VL: not shown | 9250 MFI | 111 % of 22G2 | 17.6 nM | 0.343 nM | 2.9 nM | 14 nM | 1.51 OD450 | 0.047 OD450 | 2.02 OD450 | 
2 | 43586p1.2.B2 (scFv, V domains shown) VH: EMQLLESGGGLVQPGGSLRLSCAASGFTFDDYVMSWVRQAPGKGLEWVSLINWNGDKTYYADSVKGRFTISRDNSKNTLYLQMNSLRAEDTAIYYCAKHWIVFQYGMDVWGQGTTVTVSS VL: QSVLTQPPSASGTPGQRVTISCSGSISNIETKYVSWYQQLPGTAPKLLIYNSDQRPSGVPDRFSGSKSGTSASLAISGLQSEDEADYYCVSWDASLKSWVFGGGTKLTVL | 9270 MFI | 121 % of 22G2 | 14.3 nM | 0.245 nM | 1.8 nM | 1.3 nM | 1.57 OD450 | 2.01 OD450 | 2.06 OD450 | 3.28 nM
3 | 43586p2.G10 (scFv, V domains shown) VH: EVQLLESGGGLVQPGGSLRLSCAASGFTFDDYVMSWVRQAPGKGLEWVSLINWSGGTTYYADSVKGRFTISRDNSKNTLYLQMNSLRAEDTAVYYCAKHWIVYQYGMDVWGQGTTVTVSS VL: QSVLTQPSSASGTPGQRVTISCSGTISNIETKYVSWYKYVSWYQQLPGTAPKLLIYNNVQRPSGVPDRFSGSQSGTSASLAISGLQSEDEAHYYCASWEGGLNSWVFGGGTKLTVL | 9400 MFI | 99 % of 22G2 |  | 0.267 nM | 3.7 nM | 0.919 nM | 1.83 OD450 | 2.23 OD450 | 2.21 OD450 | 3.05 nM

Stronger by Kd [4], values ahead:

Row | MFI [1] | max. signal (% of 22G2) [2] | Kd [3] | Kd [4] | Kd [5] | Kd [6] | Elisa OD450 [7] | Elisa OD450 [8] | Elisa OD450 [9] | Kd [10] | Binder
4 | 10000 MFI | 109 % of 22G2 |  | 0.128 nM | 0.181 nM | 0.595 nM | 1.85 OD450 | 1.7 OD450 | 2 OD450 |  | 43645p1.H10 (scFv, V domains shown) VH: EVQLLESGGGLVQAGGSLRLSCAASGFTFDDYVMTWVRQAPGKGLEWVSLINWSGDRTYYADSVKGRFTISRDNSKNTLYLQMNSLRAEDTAVYYCVKHNLNYYYGMDVWGQGTTVTVSS VL: QSVLTQPPSVSGTPGQRVTISCSGTISNVGNKYVSWYQQVPGTAPKLLIDYNQRPSGVPDRFSGSQSGTSASLTISGLQSEDEADYYCATWDDSLKGWVFGGGTKLTVL
5 | 9550 MFI | 106 % of 22G2 | 2.56 nM | 0.0517 nM | 1.9 nM | 1.8 nM | 1.81 OD450 | 2.01 OD450 | 2.03 OD450 | 1.45 nM | 43586p1.2.C11 (scFv, V domains shown) VH: EVQLLESGGGLVQPGGSLRLSCAASGFTFDDYVMSWVRQAPGKGLEWVSLINWNGDKTYCADSVKGRFTISRDNSKNTLYLQMNSLRAEDTAIYYCAKHWIVFQYGMDVWGQGTTVTVSS VL: QSVLTQPPSASGTPGQRVTISCSGSISNIETKYVSWYQQLPGTAPKLLIYNSDQRPSGVPDRFSGSKSGTSASLAISGLQSEDEADYYCVSWDASLKSWVFGGGTKLTVL
6 | 9350 MFI | 115 % of 22G2 |  | 0.0171 nM | 0.32 nM | 19 nM | 1.74 OD450 | 1.9 OD450 | 2.13 OD450 |  | 43645p1.D3 (scFv, V domains shown) VH: EVQLLESGGGLVQPGGSLRLSCAASGFTFSSYWMSWVRQAPGKGLEWVSGIHISDSTYYADSVKGRFTISRDNSKNTLYLQMNSLRAEDTAVYYCAKGHTVLQYGMDVWGQGTTVTVSS VL: QSGLTQPPSASGTPGQRVTISCSGDISNTRNNYVSWYQQLPGTAPKLLIYGNHQRPSGVPDRFSGSKSATSASLAISGLQSEDEADYYCGTWDNTLNAWVFGGGTKLTVL
